This passage reports stoichiometry N results from article PMC12599251.

Experiment [1] concerns the target Human Hsp90β (heat shock protein 90 beta), wild type (human) (UniProt P08238). Briefly: AUC; sedimentation velocity, 42,000 rpm, 20°C, 11-15 uM protein, absorbance at 280 nm, continuous c(S) distribution (SEDFIT); peroxynitrite-treated samples dialyzed beforehand.
Experiment [2] shares this target. Briefly: native gel or EMSA; native PAGE: 20 ug protein (1 mg/ml) on 4-20% polyacrylamide gels in native loading buffer (Tris pH 6.8, 50% glycerol); directly after purification and after incubation at 4°C or 25°C in PBS pH 7.4 for up to 48 h. A general note: Mobility shift assays separate free from complexed probe on a gel.
Experiment [3] concerns the target Human Hsp90β treated with 0.5 mM peroxynitrite (human) (UniProt P08238). Kind of experiment: AUC; sedimentation velocity, 42,000 rpm, 20°C, 11-15 uM protein, absorbance at 280 nm, continuous c(S) distribution (SEDFIT); peroxynitrite-treated samples dialyzed beforehand.
The target of experiment [4] is Human Hsp90β with 3-nitrotyrosine at position 33 (human) (UniProt P08238). The experiment is described as above.
For experiment [5] the target is unchanged. Briefly: native gel or EMSA; native PAGE: 20 ug protein (1 mg/ml) on 4-20% polyacrylamide gels in native loading buffer (Tris pH 6.8, 50% glycerol); directly after purification and after incubation at 4°C or 25°C in PBS pH 7.4 for up to 48 h.
The target is the same in experiment [6]. Kind of experiment: AUC; sedimentation velocity, 42,000 rpm, 20°C, 11-15 uM protein, absorbance at 280 nm, continuous c(S) distribution (SEDFIT); peroxynitrite-treated samples dialyzed beforehand. The source holds these as a separate data set.
Experiment [7] concerns the target Human Hsp90β with 3-nitrotyrosine at position 56 (human) (UniProt P08238). The description is as above.
The target is the same in experiment [8]. Briefly: native gel or EMSA; native PAGE: 20 ug protein (1 mg/ml) on 4-20% polyacrylamide gels in native loading buffer (Tris pH 6.8, 50% glycerol); directly after purification and after incubation at 4°C or 25°C in PBS pH 7.4 for up to 48 h.
Experiment [9] has as its target Human Hsp90β with 3-nitrotyrosine at positions 33 and 56 (human) (UniProt P08238). Kind of experiment: AUC; sedimentation velocity, 42,000 rpm, 20°C, 11-15 uM protein, absorbance at 280 nm, continuous c(S) distribution (SEDFIT); peroxynitrite-treated samples dialyzed beforehand.

Several values for one entry are separate records, joined by “and”; a condition that tells them apart may be missing. Equal entries are not always repeated.

Sequence of Human Hsp90β with 3-nitrotyrosine at positions 33 and 56, P08238 1-724 (natural protein; 3-nitrotyrosine at 33 and at 56 (sole oxidative modifications); 3-nitrotyrosine at 33 and at 56 (sole oxidative (P08238 whole entry): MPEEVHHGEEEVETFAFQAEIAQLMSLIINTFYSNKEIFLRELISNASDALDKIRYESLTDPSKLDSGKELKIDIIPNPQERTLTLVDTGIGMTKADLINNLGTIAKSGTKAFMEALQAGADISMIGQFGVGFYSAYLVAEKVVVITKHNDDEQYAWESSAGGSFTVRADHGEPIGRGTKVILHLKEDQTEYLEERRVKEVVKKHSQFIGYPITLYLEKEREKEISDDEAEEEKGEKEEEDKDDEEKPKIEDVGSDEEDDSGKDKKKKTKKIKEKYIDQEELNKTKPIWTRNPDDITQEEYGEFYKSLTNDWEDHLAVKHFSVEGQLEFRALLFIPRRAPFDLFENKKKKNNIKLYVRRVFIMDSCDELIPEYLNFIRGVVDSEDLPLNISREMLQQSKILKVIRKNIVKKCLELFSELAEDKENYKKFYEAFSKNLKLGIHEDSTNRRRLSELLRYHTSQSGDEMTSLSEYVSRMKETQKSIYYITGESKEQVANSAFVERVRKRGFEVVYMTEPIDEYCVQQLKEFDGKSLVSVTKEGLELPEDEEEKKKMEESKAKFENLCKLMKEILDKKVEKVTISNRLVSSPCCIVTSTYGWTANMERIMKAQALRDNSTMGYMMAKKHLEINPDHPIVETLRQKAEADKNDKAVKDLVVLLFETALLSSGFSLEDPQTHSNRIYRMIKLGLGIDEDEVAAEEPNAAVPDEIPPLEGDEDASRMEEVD
Sequence of Human Hsp90β (heat shock protein 90 beta), wild type, P08238 1-724 (natural protein; other documents disagree on this pair) (P08238 whole entry): as above

For the substance “Human Hsp90β (heat shock protein 90 beta), wild type, P08238 1-724 (natural protein; other documents disagree on this pair)”, the stoichiometry N in experiment [1] and in experiment [2] was 2 each time.
“Human Hsp90β treated with 0.5 mM peroxynitrite, P08238 1-724 (natural protein; nitration of Y33, Y56, Y276, Y484 and Y596 after treatment with 0.5 mM peroxynitrite; nitration of Y33, Y56, Y276, Y484 and Y596 after treatment with 0.5 mM peroxynitrite; other documents disagree on this pair)”: the stoichiometry N in [3] was 2 and 4.
For “Human Hsp90β with 3-nitrotyrosine at position 33, P08238 1-724 (natural protein; 3-nitrotyrosine at 33 (sole oxidative modification); 3-nitrotyrosine at 33 (sole oxidative modification); other documents disagree on this pair)”, the stoichiometry N was determined as 2 in [4], 2 in experiment [5] and 6 in experiment [6].
“Human Hsp90β with 3-nitrotyrosine at position 56, P08238 1-724 (natural protein; 3-nitrotyrosine at 56 (sole oxidative modification); 3-nitrotyrosine at 56 (sole oxidative modification); other documents disagree on this pair)”: the stoichiometry N in experiment [7] and in experiment [8] was 2 throughout.
On to “Human Hsp90β with 3-nitrotyrosine at positions 33 and 56, P08238 1-724 (natural protein; 3-nitrotyrosine at 33 and at 56 (sole oxidative modifications); 3-nitrotyrosine at 33 and at 56 (sole oxidative modifications); other documents disagree on this pair)”, for which, in [9], the stoichiometry N was 2 and 6.

The term stoichiometry N denotes the number of molecules, sites or subunits per partner or assembly.
